Patent US20230192903A1 (published 2023)

How the values were obtained:
[1] = target: Human CLDN18.2 (human); assay: cell-based or functional assay
[2] = target: T1, Human CLDN18.2 (human); assay: flow cytometry, NUGC4-hCLDN18.2 cells
T1 construct: the cell line is named under assay; also called hCLDN18.2; human CLDN18.2 antigen
Description: (§1) NUGC4 and NUGC4-hCLDN18.2 cells were cultured, digested with pancreatin and centrifuged to collect cells. The cells were collected and resuspended in buffer (PBS+1% FBS) at 1×10⁴ cells/well in a 96-well plate at 100 μL per well. Then the mixture was centrifuged at 350×g for 5 min, and the supernatant was removed.

[3] = target: T1, Human CLDN18.2; assay: cell-based or functional assay; remark: listed apart in the source
[4] = target: T1, Human CLDN18.2; assay: flow cytometry, NUGC4 cells (endogenous CLDN18.2)
Description: as §1

[5] = target: T2, human CD3 antigen (human, UniProt P07766 23-126); assay: SPR (Biacore T200), human CD3 antigen amine-coupled on CM5 chip, 1:1 fit
T2 construct: also called Human CD3ϵ
Description: After the detection was completed, data fitting was carried out on the result pattern by adopting Biacore T200 Evaluation Software in a 1:1 binding fitting mode to obtain an equilibrium dissociation constant (KD).

[6] = target: T1, Human CLDN18.2; assay: flow cytometry, NUGC4-hCLDN18.2 cells; remark: listed apart in the source
Description: as §1

[7] = target: T1, Human CLDN18.2; assay: flow cytometry, NUGC4 cells (endogenous CLDN18.2); remark: listed apart in the source
[8] = target: T1, Human CLDN18.2; assay: cell-based or functional assay; remark: listed apart in the source
[9] = target: T3, Human CLDN18.1 (human, UniProt P56856 1-261); assay: flow cytometry, 293T-hCLDN18.1 cells
T3 construct: also called hCLDN18.1

B1: bispecific antibody Y7 (bispecific antibody, human IgG1, kappa)
light: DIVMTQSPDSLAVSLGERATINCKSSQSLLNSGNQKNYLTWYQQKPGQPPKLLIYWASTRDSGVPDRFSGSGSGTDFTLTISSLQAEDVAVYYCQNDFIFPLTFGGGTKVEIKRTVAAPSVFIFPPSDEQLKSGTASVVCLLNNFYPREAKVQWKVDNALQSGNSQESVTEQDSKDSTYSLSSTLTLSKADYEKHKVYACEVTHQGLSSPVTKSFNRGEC
heavy: QVQLQESGPGLVKPSETLSLTCTVSGFSLTRYGVSWIRQPPGKGLEWIGVIWGEGNTNYNPSLKSRVTISKDSSKSQVSLKLSSVTAADTAVYYCARVNFGNALDYWGQGTLVTVSSASTKGPSVFPLAPSSKSTSGGTAALGCLVKDYFPEPVTVSWNSGALTSGVHTFPAVLQSSGLYSLSSVVTVPSSSLGTQTYICNVNHKPSNTKVDKKVEPKSCDKTHTCPPCPAPPVAGPSVFLFPPKPKDTLMISRTPEVTCVVVDVSHEAPEVQFNWYVDGVEVHNAKTKPREEQFNSTFRVVSVLTVVHQDWLNGKEYKCKVSNKGLPAPIEKTISKTKGQPREPQVYTLPPCRDELTKNQVSLWCLVKGFYPSDIAVEWESNGQPENNYKTTPPVLDSDGSFFLYSKLTVDKSRWQQGNVFSCSVMHEALHNHYTQKSLSLSPGK
chain: QVQLVESGGGVVQPGRSLRLSCAASGFTFSTYAMNWVRQAPGKGLEWVGRIRSKYNNYATYYADSVKDRFTISRDDSKNTLYLQMNSLRGEDTAVYYCARHGNFGNSYVSWFAYWGQGTLVTVSSGGGGSGGGGSGGGGSQTVVTQEPSLTVSPGGTVTLTCRSSTGAVTTSNYANWVQQKPGQAPRGLIGGTNKRAPGVPARFSGSLLGGKAALTLSGVQPEDEAEYTCALWYSNLWVFGGGTKVEIKGRGRGSDKTHTCPPCPAPPVAGPSVFLFPPKPKDTLMISRTPEVTCVVVDVSHEAPEVQFNWYVDGVEVHNAKTKPREEQFNSTFRVVSVLTVVHQDWLNGKEYKCKVSNKGLPAPIEKTISKTKGQPREPQVCTLPPSRDELTKNQVSLSCAVKGFYPSDIAVEWESNGQPENNYKTTPPVLDSDGSFFLVSKLTVDKSRWQQGNVFSCSVMHEALHNHYTQKSLSLSPGK
notes: YBODY structure: anti-CLDN18.2 Fab arm (2C6.9) and second monomer anti-CD3 scFv (Di6-2)-Fc
[1]
  EC50 (pM), in vitro killing by hPBMC, NUGC4-hCLDN18.2 cells: 0.655 pM
  EC50 (pM), in vitro killing by hPBMC, NUGC4 cells: 5.83 pM
[2]
  EC50: 25.4 nM
[3]
  Induction of expression of CD25 EC50 (pM), NUGC4: 15.7 pM
  Induction of expression of CD25 EC50 (pM), NUGC4-hCLDN18.2: 1.78 pM
  Induction of expression of CD69 EC50 (pM), NUGC4: 4.13 pM
  Induction of expression of CD69 EC50 (pM), NUGC4-hCLDN18.2: 0.465 pM
[4]
  EC50: 127 nM
[5]
  Kd: 4.86 nM

B2: bispecific antibody CS4 (bispecific antibody, human IgG1, kappa)
light: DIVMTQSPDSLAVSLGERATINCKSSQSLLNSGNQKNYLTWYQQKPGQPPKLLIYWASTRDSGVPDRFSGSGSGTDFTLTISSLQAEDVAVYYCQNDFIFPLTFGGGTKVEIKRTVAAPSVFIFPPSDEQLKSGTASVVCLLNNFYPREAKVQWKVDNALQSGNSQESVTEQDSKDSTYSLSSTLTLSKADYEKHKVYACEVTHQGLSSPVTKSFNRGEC
heavy 1: QVQLQESGPGLVKPSETLSLTCTVSGFSLTRYGVSWIRQPPGKGLEWIGVIWGEGNTNYNPSLKSRVTISKDSSKSQVSLKLSSVTAADTAVYYCARVNFGNALDYWGQGTLVTVSSASTKGPSVFPLAPSSKSTSGGTAALGCLVKDYFPEPVTVSWNSGALTSGVHTFPAVLQSSGLYSLSSVVTVPSSSLGTQTYICNVNHKPSNTKVDKKVEPKSCDKTHTCPPCPAPPVAGPSVFLFPPKPKDTLMISRTPEVTCVVVDVSHEAPEVQFNWYVDGVEVHNAKTKPREEQFNSTFRVVSVLTVVHQDWLNGKEYKCKVSNKGLPAPIEKTISKTKGQPREPQVYTLPPCRDELTKNQVSLWCLVKGFYPSDIAVEWESNGQPENNYKTTPPVLDSDGSFFLYSKLTVDKSRWQQGNVFSCSVMHEALHNHYTQKSLSLSPGK
heavy 2: QVQLQESGPGLVKPSETLSLTCTVSGFSLTRYGVSWIRQPPGKGLEWIGVIWGEGNTNYNPSLKSRVTISKDSSKSQVSLKLSSVTAADTAVYYCARVNFGNALDYWGQGTLVTVSSASTKGPSVFPLAPSSKSTSGGTAALGCLVKDYFPEPVTVSWNSGALTSGVHTFPAVLQSSGLYSLSSVVTVPSSSLGTQTYICNVNHKPSNTKVDKKVEPKSCDKTHTAPAPAPAPAPAPAPAPQVQLVESGGGVVQPGRSLRLSCAASGFTFSTYAMNWVRQAPGKGLEWVARIRSKYNNYATYYADSVKDRFTISRDDSKNTLYLQMNSLRAEDTAVYYCARHGNFGNSYVSWFAYWGQGTLVTVSSGGGGSGGGGSGGGGSQTVVTQEPSLTVSPGGTVTLTCRSSTGAVTTSNYANWVQQKPGQAPRGLIGGTNKRAPGVPARFSGSLLGGKAALTLSGVQPEDEAEYYCALWYSNLWVFGGGTKVEIKGGGGSDKTHTCPPCPAPPVAGPSVFLFPPKPKDTLMISRTPEVTCVVVDVSHEAPEVQFNWYVDGVEVHNAKTKPREEQFNSTFRVVSVLTVVHQDWLNGKEYKCKVSNKGLPAPIEKTISKTKGQPREPQVCTLPPSRDELTKNQVSLSCAVKGFYPSDIAVEWESNGQPENNYKTTPPVLDSDGSFFLVSKLTVDKSRWQQGNVFSCSVMHEALHNHYTQKSLSLSPGK
notes: CSBODY structure: two 2C6.9 Fab arms; second heavy chain (first heavy entry) and first heavy chain with anti-CD3 scFv (2a5) between CH1 and Fc2
[1]
  EC50 (pM), in vitro killing by hPBMC, NUGC4-hCLDN18.2 cells: 0.306 pM
  EC50 (pM), in vitro killing by hPBMC, NUGC4 cells: 0.94 pM
[2]
  EC50: 18.9 nM
[3]
  Induction of expression of CD25 EC50 (pM), NUGC4: 2.38 pM
  Induction of expression of CD25 EC50 (pM), NUGC4-hCLDN18.2: 1.19 pM
  Induction of expression of CD69 EC50 (pM), NUGC4: 0.446 pM
  Induction of expression of CD69 EC50 (pM), NUGC4-hCLDN18.2: 0.196 pM
[4]
  EC50: 23.4 nM
[5]
  Kd: 12 nM

B3: bispecific antibody Y4 (bispecific antibody, human IgG1, kappa)
light: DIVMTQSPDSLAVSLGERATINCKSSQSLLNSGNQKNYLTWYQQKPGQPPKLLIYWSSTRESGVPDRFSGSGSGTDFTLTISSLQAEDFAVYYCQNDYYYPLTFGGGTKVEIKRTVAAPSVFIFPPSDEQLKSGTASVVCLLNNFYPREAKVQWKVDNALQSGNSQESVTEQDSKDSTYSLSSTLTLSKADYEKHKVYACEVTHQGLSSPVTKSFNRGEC
heavy: EVQLVESGGGLVKPGGSLRLSCAASGFSFSNSAMSWVRQAPGKGLEWVSTISSGDSYTYYADSVKGRFTISRDNAKNSLYLQMNSLRAEDTAVYYCARQGYGNALDYWGQGTLVTVSSASTKGPSVFPLAPSSKSTSGGTAALGCLVKDYFPEPVTVSWNSGALTSGVHTFPAVLQSSGLYSLSSVVTVPSSSLGTQTYICNVNHKPSNTKVDKKVEPKSCDKTHTCPPCPAPPVAGPSVFLFPPKPKDTLMISRTPEVTCVVVDVSHEAPEVQFNWYVDGVEVHNAKTKPREEQFNSTFRVVSVLTVVHQDWLNGKEYKCKVSNKGLPAPIEKTISKTKGQPREPQVYTLPPCRDELTKNQVSLWCLVKGFYPSDIAVEWESNGQPENNYKTTPPVLDSDGSFFLYSKLTVDKSRWQQGNVFSCSVMHEALHNHYTQKSLSLSPGK
chain: QVQLVESGGGVVQPGRSLRLSCAASGFTFSTYAMNWVRQAPGKGLEWVARIRSKYNNYATYYADSVKDRFTISRDDSKNTLYLQMNSLRAEDTAVYYCARHGNFGNSYVSWFAYWGQGTLVTVSSGGGGSGGGGSGGGGSQTVVTQEPSLTVSPGGTVTLTCRSSTGAVTTSNYANWVQQKPGQAPRGLIGGTNKRAPGVPARFSGSLLGGKAALTLSGVQPEDEAEYYCALWYSNLWVFGGGTKVEIKGRGRGSDKTHTCPPCPAPPVAGPSVFLFPPKPKDTLMISRTPEVTCVVVDVSHEAPEVQFNWYVDGVEVHNAKTKPREEQFNSTFRVVSVLTVVHQDWLNGKEYKCKVSNKGLPAPIEKTISKTKGQPREPQVCTLPPSRDELTKNQVSLSCAVKGFYPSDIAVEWESNGQPENNYKTTPPVLDSDGSFFLVSKLTVDKSRWQQGNVFSCSVMHEALHNHYTQKSLSLSPGK
notes: YBODY structure: anti-CLDN18.2 Fab arm (1E9.2) and second monomer anti-CD3 scFv (2a5)-Fc
[1]
  EC50 (pM), in vitro killing by hPBMC, NUGC4-hCLDN18.2 cells: 0.378 pM
  EC50 (pM), in vitro killing by hPBMC, NUGC4 cells: 137 pM
[2]
  EC50: 24.4 nM
[3]
  Induction of expression of CD25 EC50 (pM), NUGC4: 12.2 pM
  Induction of expression of CD25 EC50 (pM), NUGC4-hCLDN18.2: 0.962 pM
  Induction of expression of CD69 EC50 (pM), NUGC4: 0.61 pM
  Induction of expression of CD69 EC50 (pM), NUGC4-hCLDN18.2: 0.67 pM
[4]
  EC50: 58.9 nM
[5]
  Kd: 5.74 nM

B4: bispecific antibody CS3 (bispecific antibody, human IgG1, kappa)
light: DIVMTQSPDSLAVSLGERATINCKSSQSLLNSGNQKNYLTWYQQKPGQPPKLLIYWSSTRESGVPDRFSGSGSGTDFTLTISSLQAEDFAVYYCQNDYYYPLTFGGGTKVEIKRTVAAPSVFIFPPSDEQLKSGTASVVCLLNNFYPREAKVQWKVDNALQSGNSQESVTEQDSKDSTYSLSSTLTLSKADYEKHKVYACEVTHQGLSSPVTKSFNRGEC
heavy 1: EVQLVESGGGLVKPGGSLRLSCAASGFSFSNSAMSWVRQAPGKGLEWVSTISSGDSYTYYADSVKGRFTISRDNAKNSLYLQMNSLRAEDTAVYYCARQGYGNALDYWGQGTLVTVSSASTKGPSVFPLAPSSKSTSGGTAALGCLVKDYFPEPVTVSWNSGALTSGVHTFPAVLQSSGLYSLSSVVTVPSSSLGTQTYICNVNHKPSNTKVDKKVEPKSCDKTHTCPPCPAPPVAGPSVFLFPPKPKDTLMISRTPEVTCVVVDVSHEAPEVQFNWYVDGVEVHNAKTKPREEQFNSTFRVVSVLTVVHQDWLNGKEYKCKVSNKGLPAPIEKTISKTKGQPREPQVYTLPPCRDELTKNQVSLWCLVKGFYPSDIAVEWESNGQPENNYKTTPPVLDSDGSFFLYSKLTVDKSRWQQGNVFSCSVMHEALHNHYTQKSLSLSPGK
heavy 2: EVQLVESGGGLVKPGGSLRLSCAASGFSFSNSAMSWVRQAPGKGLEWVSTISSGDSYTYYADSVKGRFTISRDNAKNSLYLQMNSLRAEDTAVYYCARQGYGNALDYWGQGTLVTVSSASTKGPSVFPLAPSSKSTSGGTAALGCLVKDYFPEPVTVSWNSGALTSGVHTFPAVLQSSGLYSLSSVVTVPSSSLGTQTYICNVNHKPSNTKVDKKVEPKSCDKTHTAPAPAPAPAPAPAPAPQVQLVESGGGVVQPGRSLRLSCAASGFTFSTYAMNWVRQAPGKGLEWVARIRSKYNNYATYYADSVKDRFTISRDDSKNTLYLQMNSLRAEDTAVYYCARHGNFGNSYVSWFAYWGQGTLVTVSSGGGGSGGGGSGGGGSQTVVTQEPSLTVSPGGTVTLTCRSSTGAVTTSNYANWVQQKPGQAPRGLIGGTNKRAPGVPARFSGSLLGGKAALTLSGVQPEDEAEYYCALWYSNLWVFGGGTKVEIKGGGGSDKTHTCPPCPAPPVAGPSVFLFPPKPKDTLMISRTPEVTCVVVDVSHEAPEVQFNWYVDGVEVHNAKTKPREEQFNSTFRVVSVLTVVHQDWLNGKEYKCKVSNKGLPAPIEKTISKTKGQPREPQVCTLPPSRDELTKNQVSLSCAVKGFYPSDIAVEWESNGQPENNYKTTPPVLDSDGSFFLVSKLTVDKSRWQQGNVFSCSVMHEALHNHYTQKSLSLSPGK
notes: CSBODY structure: two 1E9.2 Fab arms; second heavy chain (first heavy entry) and first heavy chain with anti-CD3 scFv (2a5) between CH1 and Fc2
[1]
  EC50 (pM), in vitro killing by hPBMC, NUGC4-hCLDN18.2 cells: 0.698 pM
  EC50 (pM), in vitro killing by hPBMC, NUGC4 cells: 0.333 pM
[2]
  EC50: 31.5 nM
[3]
  Induction of expression of CD25 EC50 (pM), NUGC4: 5.38 pM
  Induction of expression of CD25 EC50 (pM), NUGC4-hCLDN18.2: 5.45 pM
  Induction of expression of CD69 EC50 (pM), NUGC4: 0.461 pM
  Induction of expression of CD69 EC50 (pM), NUGC4-hCLDN18.2: 1.45 pM
[4]
  EC50: 64 nM
[5]
  Kd: 10 nM

B5: bispecific antibody Y18 (bispecific antibody, human IgG1, kappa)
light: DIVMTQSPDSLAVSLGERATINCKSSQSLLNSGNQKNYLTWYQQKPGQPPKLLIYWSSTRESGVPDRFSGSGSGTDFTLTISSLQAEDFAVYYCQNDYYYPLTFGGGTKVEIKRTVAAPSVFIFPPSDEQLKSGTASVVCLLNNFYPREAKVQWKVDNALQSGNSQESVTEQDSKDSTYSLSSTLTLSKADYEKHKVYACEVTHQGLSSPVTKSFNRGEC
heavy: EVQLVESGGGLVKPGGSLRLSCAASGFSFSNSAMSWVRQAPGKGLEWVSTISSGDSYTYYADSVKGRFTISRDNAKNSLYLQMNSLRAEDTAVYYCARQGYGNALDYWGQGTLVTVSSASTKGPSVFPLAPSSKSTSGGTAALGCLVKDYFPEPVTVSWNSGALTSGVHTFPAVLQSSGLYSLSSVVTVPSSSLGTQTYICNVNHKPSNTKVDKKVEPKSCDKTHTCPPCPAPPVAGPSVFLFPPKPKDTLMISRTPEVTCVVVDVSHEAPEVQFNWYVDGVEVHNAKTKPREEQFNSTFRVVSVLTVVHQDWLNGKEYKCKVSNKGLPAPIEKTISKTKGQPREPQVYTLPPCRDELTKNQVSLWCLVKGFYPSDIAVEWESNGQPENNYKTTPPVLDSDGSFFLYSKLTVDKSRWQQGNVFSCSVMHEALHNHYTQKSLSLSPGK
chain: not shown
notes: YBODY structure: anti-CLDN18.2 Fab arm (1E9.2) and second monomer anti-CD3 scFv (L2K)-Fc
[6]
  EC50: < 50 nM
[7]
  EC50: < 100 nM
[8]
  EC50 value for killing effect on NUGC4-hCLDN18.2 cells: < 0.01 nM
  EC50 value for killing effect on NUGC4 cells: < 0.01 nM
[9]
  binding result: no binding
